These results are taken from article PMC7154858, “Transcriptional and Biochemical Characterization of Cytosolic Pyruvate Kinases in Arabidopsis thaliana” (Plants, 2020).

In one series the target is T1, cPK1 (Arabidopsis thaliana, UniProt Q9FNN1).
T1 construct: gene MAH20.13; full-length cDNA in pET16b, N-terminal His tag (6x in Results, 5x in Methods), E. coli BLR21, Ni-NTA; primer begins MSNIDIEG
T1 sequence (Q9FNN1 1-510): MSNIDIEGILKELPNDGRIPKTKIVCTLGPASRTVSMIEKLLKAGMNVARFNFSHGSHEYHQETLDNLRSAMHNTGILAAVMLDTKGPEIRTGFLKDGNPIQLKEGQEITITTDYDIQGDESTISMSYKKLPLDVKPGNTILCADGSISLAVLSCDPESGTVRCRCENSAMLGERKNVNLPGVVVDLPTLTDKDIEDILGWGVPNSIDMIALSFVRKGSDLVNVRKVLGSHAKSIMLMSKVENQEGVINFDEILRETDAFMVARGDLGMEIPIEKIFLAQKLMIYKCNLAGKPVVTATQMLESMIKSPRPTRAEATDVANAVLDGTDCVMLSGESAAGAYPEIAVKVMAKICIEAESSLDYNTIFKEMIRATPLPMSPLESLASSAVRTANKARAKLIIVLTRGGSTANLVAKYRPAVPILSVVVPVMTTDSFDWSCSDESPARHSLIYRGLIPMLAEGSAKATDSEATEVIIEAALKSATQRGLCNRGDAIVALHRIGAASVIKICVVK
Put plainly: LDH-coupled assay, single effector concentration. In kind it is biochemical. The conditions noted are these: 200 µM; saturating ADP and PEP; 10 mM MgCl2, pH 7.5, 25 °C; inhibitor.

The target in series [1] is T2, cytosolic pyruvate kinase 2 (cPK2, At5g56350) (Arabidopsis thaliana) (UniProt Q9FM97).
T2 sequence: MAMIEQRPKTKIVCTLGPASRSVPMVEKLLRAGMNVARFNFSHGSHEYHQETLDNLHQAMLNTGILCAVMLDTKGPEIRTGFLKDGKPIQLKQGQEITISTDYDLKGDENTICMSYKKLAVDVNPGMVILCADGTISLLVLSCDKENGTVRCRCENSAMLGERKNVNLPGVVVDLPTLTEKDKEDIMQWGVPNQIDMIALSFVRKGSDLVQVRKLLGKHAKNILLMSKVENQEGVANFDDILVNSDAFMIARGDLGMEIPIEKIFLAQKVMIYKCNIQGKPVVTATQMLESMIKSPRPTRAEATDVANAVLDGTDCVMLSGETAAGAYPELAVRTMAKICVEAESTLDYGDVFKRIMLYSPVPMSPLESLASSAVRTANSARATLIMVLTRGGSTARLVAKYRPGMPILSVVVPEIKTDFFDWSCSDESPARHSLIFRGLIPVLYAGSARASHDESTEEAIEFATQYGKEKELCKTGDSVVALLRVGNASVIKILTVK

Series [2] has as its target T3, cytosolic pyruvate kinase 4 (cPK4, At2g36580) (Arabidopsis thaliana) (UniProt Q9SJQ0).
T3 sequence: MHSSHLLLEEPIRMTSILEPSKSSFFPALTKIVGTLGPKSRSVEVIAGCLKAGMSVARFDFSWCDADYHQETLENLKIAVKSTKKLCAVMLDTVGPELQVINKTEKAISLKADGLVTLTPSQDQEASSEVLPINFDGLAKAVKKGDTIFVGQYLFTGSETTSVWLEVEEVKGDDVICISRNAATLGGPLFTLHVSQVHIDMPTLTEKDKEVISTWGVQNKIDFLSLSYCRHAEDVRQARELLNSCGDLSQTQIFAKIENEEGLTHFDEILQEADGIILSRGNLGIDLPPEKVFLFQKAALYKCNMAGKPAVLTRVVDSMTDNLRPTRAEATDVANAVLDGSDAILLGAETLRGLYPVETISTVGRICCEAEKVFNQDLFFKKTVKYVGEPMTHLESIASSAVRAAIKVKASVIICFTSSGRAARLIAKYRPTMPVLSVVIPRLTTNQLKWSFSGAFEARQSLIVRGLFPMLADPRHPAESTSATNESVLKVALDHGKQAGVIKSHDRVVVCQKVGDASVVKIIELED

Substrate in series [3]: C=C(OP(=O)(O)O)C(=O)O
Description: purified protein. The note with it: co-substrate ADP, 10 mM MgCl2, 50 mM KCl, 5% PEG 200, pH 7.5, 25 °C. In kind it is biochemical, Arabidopsis thaliana.

Substrate in series [4]: Nc1ncnc2c1ncn2[C@@H]1O[C@H](COP(=O)(O)OP(=O)(O)O)[C@@H](O)[C@H]1O
Description: purified protein. In kind it is biochemical, Arabidopsis thaliana. The conditions noted are these: co-substrate PEP, 10 mM MgCl2, 50 mM KCl, 5% PEG 200, pH 7.5, 25 °C.

Regarding `N[C@@H](CC(=O)O)C(=O)O` [aspartate], the Aspartate on cPK1 is 69%.
For the molecule “cytosolic pyruvate kinase 3 (cPK3) (from UniProt Q9FFP6 1-510) (enzyme)”, the specific pyruvate kinase activity (LDH-coupled assay, substrate saturating conditions) of a mixture of equal ratios of cPK2 and cPK3, compared to the single enzymes in series [1] came to 20 % increase. In series [2], the specific pyruvate kinase activity (LDH-coupled assay, substrate saturating conditions) of a mixture of equal ratios of cPK4 and cPK3, compared to the single enzymes came to 20 % increase.

B1: cPK3 (Arabidopsis thaliana) (protein)
chain: MSNIDIEGILKELPNDGRTPKTKIVCTLGPASRSVTMIEKLLKAGMNVARFNFSHGSHEYHQETLDNLRTAMQNTGILAAVMLDTKGPEIRTGFLKDGNPIQLKEGQEITITTDYDIKGDEKTISMSYKKLPVDVKPGNTILCADGSISLAVVSCDPNAGTVICRCENTAMLGERKNVNLPGVVVDLPTLTDKDVEDILKWGVPNNIDMIALSFVRKGSDLVNVRKVLGSHSKSIMLMSKVENQEGVLNFDEILRETDAFMVARGDLGMEIPIEKIFLAQKMMIYKCNLAGKPVVTATQMLESMIKSPRPTRAEATDVANAVLDGTDCVMLSGESAAGAYPEIAVKTMAKICIEAESSLDYNTIFKEMIRATPLPMSTLESLASSAVRTANKAKAKLIIVLTRGGTTAKLVAKYRPAVPILSVVVPVFTSDTFNWSCSDESPARHSLIYRGLIPVLGEGSAKATDSESTEEIIESALKSATEKGLCNHGDAVVALHRIGAASVIKICVVK
notes: printed locus At5g56350 duplicates cPK2 (apparent misprint); primer begins MSNIDIE, unlike cPK2; full-length cDNA in pET16b, N-terminal His tag (6x/5x), E. coli BLR21, Ni-NTA
For orientation: Km means the substrate concentration at which the rate is half of its maximum. In general, kcat refers to the maximal rate divided by the concentration of active sites. As to B1, the Km in the series “purified protein [3]” was found to be 170 µM; in the series “purified protein [4]”, 140 µM. Further, the kcat in the series “purified protein [3]” and in “purified protein [4]” was 2.4 s⁻¹ throughout.

B2: cPK2 (Arabidopsis thaliana) (protein)
chain: T2 sequence
notes: full-length cDNA in pET16b, N-terminal His tag (6x in Results, 5x in Methods), E. coli BLR21, Ni-NTA; primer begins MAMIEQ
B2: in “purified protein [3]”, the Km was found to be 760 µM and the kcat was 3.05 s⁻¹. Besides, in the series “purified protein [4]”, the Km was 30 µM and the kcat amounted to 3.05 s⁻¹.

B3: cPK4 (Arabidopsis thaliana) (protein)
chain: T3 sequence
notes: full-length cDNA in pET16b, N-terminal His tag (6x in Results, 5x in Methods), E. coli BLR21, Ni-NTA; primer begins MHSSHL
With B3, the Km in “purified protein [3]” is 170 µM; in the series “purified protein [4]”, 70 µM. The catalytic constant (kcat) in “purified protein [3]” and in the series “purified protein [4]” was 4.0 s⁻¹ in each case.

B4: cytosolic pyruvate kinase 5 (cPK5, At3g52990) (enzyme)
chain: MHSSHLLLEEPIRMASILEPSKSSFFPALTKIVGTLGPKSRSVEALSGCLKAGMSVARFDFSWGDADYHQETLDNLKVAVRSTKKLCAVMLDTVGPELQVINKSEKAITLKADGLVTLTPNQDQEASSEVLPINFNGLAKAVKKGDTIFVGQYLFTGSETTSVWLEVDEVKGDDVICLSRNAATLAGSLFTLHSSQVHIDLPTLTEKDKEVISTWGVQNKIDFLSLSYCRHAEDVRQTREMLKKLGDLSQTQIFAKIENVEGLTHFDEILQEADGIILSRGNLGIDLPPEKVFLFQKAALYKCNMAGKPAVLTRVVDSMTDNLRPTRAEATDVANAVLDGSDAILLGAETLRGLYPVETISTVGRICAEAEKVFNQDLYFKKTVKYVGEPMTHLESIASSAVRAAIKVKASVIICFTSSGRAARLIAKYRPTMPVISVVIPRVKTNQLKWSFSGAFEARQSLIVRGLFPMLADPRHPAESTSATNESVLKVALDHGKHAGVIKSHDRVVVCQKVGDASVVKIIELED
Take B4: the specific pyruvate kinase activity (LDH-coupled assay, substrate saturating conditions) of a batch with equal ratios of cPK4 and cPK5, compared to cPK4 alone in series [2] was found to be 180 % increase.

B5: cPK5 (Arabidopsis thaliana) (protein)
chain: B4 chain
notes: as for B3
In the case of B5, the Km in the series “purified protein [3]” was found to be 50 µM; in the series “purified protein [4]” it was 340 µM. Besides, the kcat in “purified protein [3]” and in “purified protein [4]” was 6.68 s⁻¹ throughout.

B6: cytosolic pyruvate kinase 1 (cPK1, At5g08570) (enzyme)
chain: T1 sequence (Q9FNN1 1-510)
B6: the specific pyruvate kinase activity (LDH-coupled assay, substrate saturating conditions) of a mixture of equal ratios of cPK1 and cPK2, compared to cPK2 alone in series [1] amounted to 70 % increase. Also, the specific pyruvate kinase activity (LDH-coupled assay, substrate saturating conditions) of a mixture of equal ratios of cPK1 and cPK4, normalised to cPK4 alone in series [2] came to 75 % increase.

B7: cPK1 (Arabidopsis thaliana) (protein)
chain: T1 sequence (Q9FNN1 1-510)
notes: full-length cDNA in pET16b, N-terminal His tag (6x in Results, 5x in Methods), E. coli BLR21, Ni-NTA; primer begins MSNIDIEG
B7: the figures for the Km in “purified protein [3]” and in “purified protein [4]” were 60 µM and 150 µM, respectively. The kcat in “purified protein [3]” and in the series “purified protein [4]” was 1.53 s⁻¹ each time.
